Test results from patent publication US11981943B2, “Methods and composition for detecting CAPN5” (UNIVERSITY OF IOWA RESEARCH FOUNDATION, priority 2016, dated 2024).
Entries after “also recorded” stand apart in the source; their conditions may differ.

Assays:
Format in all cases: biochemical
CAPN1 WT [1] = target: T1, CAPN1 WT (Homo sapiens, UniProt P07384); test: Inhibition of CAPN1 WT proteolysis of EPLFAERK substrate
T1 sequence (P07384 1-714): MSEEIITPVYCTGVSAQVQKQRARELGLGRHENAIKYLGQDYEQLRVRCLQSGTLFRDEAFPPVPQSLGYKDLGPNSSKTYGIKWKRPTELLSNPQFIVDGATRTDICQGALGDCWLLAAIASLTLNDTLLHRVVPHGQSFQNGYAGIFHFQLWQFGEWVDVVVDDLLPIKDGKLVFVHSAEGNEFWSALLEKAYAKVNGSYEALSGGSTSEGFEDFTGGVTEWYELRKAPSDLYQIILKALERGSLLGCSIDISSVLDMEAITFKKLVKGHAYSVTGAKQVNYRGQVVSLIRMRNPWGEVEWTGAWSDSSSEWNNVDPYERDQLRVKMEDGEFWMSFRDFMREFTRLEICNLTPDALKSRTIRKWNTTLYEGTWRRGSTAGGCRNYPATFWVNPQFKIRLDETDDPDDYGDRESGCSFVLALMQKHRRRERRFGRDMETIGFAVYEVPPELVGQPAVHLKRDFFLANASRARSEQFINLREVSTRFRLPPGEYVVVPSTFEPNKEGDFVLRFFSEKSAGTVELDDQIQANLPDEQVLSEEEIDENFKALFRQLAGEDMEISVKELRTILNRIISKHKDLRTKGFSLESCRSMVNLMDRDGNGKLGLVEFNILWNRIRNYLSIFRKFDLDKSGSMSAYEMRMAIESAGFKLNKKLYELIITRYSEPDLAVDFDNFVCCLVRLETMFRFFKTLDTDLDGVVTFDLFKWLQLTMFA
Method: (§1) FIG. 15A: Various concentrations of SNJ-1945 were incubated in a reaction with 50 μM EPLFAERK (SEQ ID NO: 22) (a CAPN1 substrate) and CAPN1 WT in activity. Data is plotted for CAPN1 as initial velocity (μM/sec) versus SNJ-1945 concentration. Addition of 1 μM SNJ-1945 slows the initial reaction rate by 100%. FIG. 15B: CAPN1 WT was incubated with and without SNJ-1945 at increasing concentrations of EPLFAERK substrate (SEQ ID NO: 22). Data is plotted for CAPN1 as initial velocity (μM/sec) versus substrate concentration. FIG. 15C: Various concentrations of SNJ-1945 were incubated in a reaction with CAPN5p.370-80 and CAPN5 WT in an activity buffer. Data is plotted for CAPN5 as initial velocity (μM/sec) versus SNJ-1945 concentration. Only after addition of 100 μM SNJ-1945 did the initial reaction rate slow to 100%. FIG. 15D: CAPN5 WT was incubated with and without SNJ-1945 at increasing concentrations of CAPN5 p.370-80 substrate. Data is plotted for CAPN5 as initial velocity (μM/sec) versus substrate concentration.
Various concentrations of SNJ-1945 were incubated in a reaction with 50 μM EPLFAERK (a CAPN1 substrate) (SEQ ID NO: 22) and CAPN1 WT in activity. Addition of 1 μM SNJ-1945 slows the initial reaction rate by 100% (FIG. 15A). CAPN1 WT was incubated with and without SNJ-1945 at increasing concentrations of EPLFAERK substrate (SEQ ID NO: 22) (FIG. 15B). […]

CAPN5 WT [2] = target: T2, CAPN5 WT (Homo sapiens, UniProt O15484); test: Inhibition of CAPN5 WT proteolysis of CAPN5p.370-80 substrate; conditions: for effect of increasing substrate concentration on inhibition of CAPN5: increasing concentrations of CAPN5 p.370-80 substrate, with and without inhibitor
Method: as §1
FIGS. 16A-16B. […] First generation lead compound CAPN5 p.370-80 was modified using amide cyclization to generate a second generation competitive cyclic inhibitor. (FIG. 16A) Various concentrations of Cyclic CAPN5 p.370-80 were incubated in a reaction with CAPN5p.370-80 and CAPN5 WT in an activity buffer. Data is plotted for CAPN5 as initial velocity (μM/sec) versus Cyclic CAPN5 p.370-80 concentration. Addition of 10 μM Cyclic CAPN5 p.370-80 slows the initial reaction rate by 40%. (FIG. 16B) CAPN5 WT was incubated with and without 10 μM Cyclic CAPN5 p.370-80 at increasing concentrations of CAPN5 p.370-80 substrate. Data is plotted for CAPN5 as initial velocity (μM/sec) versus substrate concentration.
Various concentrations of SNJ-1945 were incubated in a reaction with 50 μM EPLFAERK (a CAPN1 substrate) (SEQ ID NO: 22) and CAPN1 WT in activity. Addition of 1 μM SNJ-1945 slows the initial reaction rate by 100% (FIG. 15A). CAPN1 WT was incubated with and without SNJ-1945 at increasing concentrations of EPLFAERK substrate (SEQ ID NO: 22) (FIG. 15B). Various concentrations of SNJ-1945 were incubated in a reaction with CAPN5p.370-80 and CAPN5 WT in an activity buffer. Only after addition of 100 μM SNJ-1945 did the initial reaction rate slow to 100% (FIG. 15C). CAPN5 WT was incubated with and without SNJ-1945 at increasing concentrations of CAPN5 p.370-80 substrate (FIG. 15D).
First generation lead compound CAPN5 p.370-80 was modified using amide cyclization to generate a second generation competitive cyclic inhibitor. Various concentrations of Cyclic CAPN5 p.370-80 were incubated in a reaction with CAPN5p.370-80 and CAPN5 WT in an activity buffer. Addition of 10 μM Cyclic CAPN5 p.370-80 slows the initial reaction rate by 40% (FIG. 16A). CAPN5 WT was incubated with and without 10 μM Cyclic CAPN5 p.370-80 at increasing concentrations of CAPN5 p.370-80 substrate.

CAPN5 WT [3] = target: T2, CAPN5 WT; test: FRET peptide proteolysis assay with CAPN5-WT; design: MBP (N); conditions: for proteolysis of peptide substrate by CAPN5-WT (fluorescence): FRET peptide, calpain activity buffer, 37° C.
Method: (§2) FIG. 2. Diagram of Assay. 10 uM of FRET substrates were added to a solution containing 2 mM DTT, 5 uM Calcium, and CAPN5 Buffer (20 mM Tris, 300 mM NaCl, pH 7.5) to a volume of 100 uL. The solution was pipetted into a 96 well plate in wells that contained 24 uM of CAPN5-WT, CAPN5-R243L, or no CAPN5. The fluorescence of each well was measured using a Tecan Infinite M200 Pro plate reader.
(§3) Peptide substrates dissolved in DMSO and H2O were incubated with WT CAPN5 at 37° C. in the presence or absence of calcium until a change in fluorescence was no longer detected. […] As expected, R243LCAPN5 (hyperactive) cleaved substrate fragments at a higher rate (FIG. 4). Inhibitor peptides were identified that serve as the lead compounds for optimization.
Proteolytic kinetics of CAPN5 is influenced by peptide length near its autoproteolytic site. Peptides substrates that were 7, 11, and 21 amino acids long were incubated in calpain activity buffer. The solution was brought to 37° C. CAPN5 was then added and fluorescence was measured. […] The kinetics data from the Michaelis-Menten and substrate inhibition equations are shown in a table (FIG. 12D).
(§4) Peptides were incubated in calpain activity buffer, and the solution was brought to 37° C. Calpain was added and fluorescence was measured. The fluorescence measured for the lead peptide, CAPN5p370-380, was plotted and lines were fit using the following substrate inhibition equation, Y=Vmax*X/(Km+X*(1+X/Ki)). […] The fluorescence measure for a previously published calpain-1 peptide, EPLFAERK (SEQ ID NO: 22), was plotted and lines were fit using the following Michaelis-Menten equation, Y=Vmax*X/(Km+X) (FIG. 13B). […] Kinetics data from the Michaelis-Menten and substrate inhibition equations are shown in a table (FIG. 13C).
Scanning modifications were made to the amino acids of the lead compound to make the bonds un-cleavable by CAPN5 (FIG. 18B). Despite modifications, the peptide still fit in the catalytic groove using docking predictions. N-terminal (EDANS) and C-terminal GLU-(DABCYL) FRET tags were added to the peptides for our standard CAPN5 assay and were dissolved in 70% DMSO (FIG. 18C). Peptides incubated for 15 minutes at various concentrations with 5 μg of MBP-CAPN5 WT. Modification of the amino acids slows the reaction rate. Data is plotted as initial velocity (uM/sec) versus peptide concentration fit to the substrate inhibition equation (FIG. 18D).
The CAPN5-370-80 peptide was modified (FIGS. 19A-19G) and the activity was evaluated (FIGS. 20A-20D). Scanning modifications were made to the amino acids of the peptide to make the bonds un-cleavable by CAPN5. The location of the modifications are denoted with circles N-terminal (EDANS) and C-terminal GLU-(DABCYL) FRET tags were added to the peptides for the standard CAPN5 assay and were dissolved in 70% DMSO. Peptides incubated for 15 minutes at various concentrations with 5 μg of MBP-CAPN5 WT in a buffer containing 20 mM Tris, 300 mM NaCl, 2 mM DTT, pH 7.5 to measure activity (FIG. 20C). Data is plotted as initial velocity (uM/sec) versus peptide concentration. Modification of the amino acids slows the reaction rate.

CAPN1 WT [4] = target: T1, CAPN1 WT; test: FRET peptide proteolysis assay with CAPN1; conditions: calpain activity buffer, 37° C.
Method: as §4
CAPN5 specifically targets a peptide corresponding to its own autocatalytic site and not homologous regions in other calpains. […] Peptides corresponding to the homologous regions of the CAPN5 autoprotolysis site in other calpain family members were incubated with CAPN5 protease. […] Peptides tested in FIG. 14B were incubated with CAPN1. […] Kinetics data from the Michaelis-Menten and substrate inhibitions equations are shown in a table (FIG. 14D).

CAPN5-R243L = CAPN5-R243L (Homo sapiens, UniProt O15484, R243L); test: FRET peptide proteolysis assay with CAPN5-R243L; conditions: hyperactive R243L mutant
Method: as §2, §3

T2 sequence (O15484 whole entry): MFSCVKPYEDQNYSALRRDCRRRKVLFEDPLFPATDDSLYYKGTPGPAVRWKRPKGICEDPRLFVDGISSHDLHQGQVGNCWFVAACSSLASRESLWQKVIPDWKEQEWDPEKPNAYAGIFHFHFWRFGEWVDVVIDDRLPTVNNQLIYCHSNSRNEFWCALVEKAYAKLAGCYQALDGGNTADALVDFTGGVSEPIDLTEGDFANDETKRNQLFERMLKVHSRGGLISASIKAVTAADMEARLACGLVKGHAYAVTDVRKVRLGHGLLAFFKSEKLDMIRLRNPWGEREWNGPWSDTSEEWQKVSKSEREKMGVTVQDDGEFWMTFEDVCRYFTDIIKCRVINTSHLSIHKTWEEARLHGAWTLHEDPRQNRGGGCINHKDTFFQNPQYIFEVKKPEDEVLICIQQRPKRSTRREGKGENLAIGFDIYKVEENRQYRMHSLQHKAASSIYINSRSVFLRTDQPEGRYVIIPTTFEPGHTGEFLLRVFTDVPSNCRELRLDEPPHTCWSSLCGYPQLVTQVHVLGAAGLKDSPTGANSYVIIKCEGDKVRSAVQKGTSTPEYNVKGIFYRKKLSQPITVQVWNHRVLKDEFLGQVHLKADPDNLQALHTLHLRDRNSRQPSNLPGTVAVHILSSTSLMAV
Chain of CAPN5-R243L (O15484 whole entry R243L): as the sequence (O15484 whole entry) above, with R243L counted along it

COCCOCCOC(=O)N[C@@H](CC(C)C)C(=O)N[C@@H](Cc1ccccc1)C(=O)C(=O)NC1CC1 [SNJ-1945]
inhibition of CAPN1 (in words) (CAPN1 WT [1]): inhibits CAPN1 | slowing of initial reaction rate of CAPN1 (CAPN1 WT [1]; 1 μM SNJ-1945, 50 μM EPLFAERK substrate): 100% | inhibition of CAPN5 (in words) (CAPN5 WT [2]): not a good inhibitor of CAPN5 | slowing of initial reaction rate of CAPN5 (CAPN5 WT [2]; 100 μM SNJ-1945, CAPN5p.370-80 substrate): 100% | effect of increasing substrate concentration on inhibition of CAPN5 (CAPN5 WT [2]): overcomes the inhibition

CAPN5p.372-378: 7 amino acid peptide substrate near the CAPN5 autoproteolytic site (NRGGGCI)
proteolysis of peptide substrate by CAPN5-WT (fluorescence) (CAPN5 WT [3]): mild cleavage

CAPN14 peptide: peptide of the CAPN14 region homologous to the CAPN5 autoproteolysis site (RGFNSGGSQPNAETFWTNPQFR; listed as Homo sapiens)
proteolysis of peptide substrate by CAPN5-WT (fluorescence) (CAPN5 WT [3]): some proteolysis

Cyclic CAPN5 p.370-80: CAPN5 p.370-80 modified by amide cyclization, second generation competitive cyclic inhibitor
slowing of initial reaction rate of CAPN5 (CAPN5 WT [2]; 10 μM Cyclic CAPN5 p.370-80, CAPN5p.370-80 substrate): 40% | effect of increasing substrate concentration on inhibition of CAPN5 (CAPN5 WT [2]): does not overcome inhibition

EPLFAERK [reference compound]
proteolysis of peptide substrate by CAPN1 (fluorescence) (CAPN1 WT [4]): specific to CAPN1; also recorded: high proteolysis | proteolysis of peptide substrate by CAPN5-WT (fluorescence) (CAPN5 WT [3]): not proteolyzed by CAPN5; also recorded: very limited proteolysis

KIEIVRKKPIFKKATV [PDGFB (155-170)]
proteolysis of peptide substrate by CAPN5-R243L (fluorescence) (CAPN5-R243L): greatest fluorescent intensity

RQNRGGGCINH (listed as Homo sapiens) [CAPN5-370-380]
proteolysis of peptide substrate by CAPN1 (fluorescence) (CAPN1 WT [4]; listed as CAPN5 (370-380)): not proteolyzed by CAPN1 | proteolysis of peptide substrate by CAPN1 (fluorescence) (CAPN1 WT [4]; listed as CAPN5p370-380): very limited proteolysis | proteolysis of peptide substrate by CAPN5-R243L (fluorescence) (CAPN5-R243L): most sensitive to cleavage | proteolysis of peptide substrate by CAPN5-R243L (fluorescence) (CAPN5-R243L; listed as CAPN5 (370-380)): greatest fluorescent intensity | proteolysis of peptide substrate by CAPN5-WT (fluorescence) (CAPN5 WT [3]): most sensitive to cleavage | proteolysis of peptide substrate by CAPN5-WT (fluorescence) (CAPN5 WT [3]; listed as 11 aa peptide): rapid and high cleavage | proteolysis of peptide substrate by CAPN5-WT (fluorescence) (CAPN5 WT [3]; listed as CAPN5 (370-380)): specific to CAPN5 | proteolysis of peptide substrate by CAPN5-WT (fluorescence) (CAPN5 WT [3]; listed as CAPN5 (p370-380)): greatest fluorescent intensity | proteolysis of peptide substrate by CAPN5-WT (fluorescence) (CAPN5 WT [3]; listed as CAPN5p370-380): high proteolysis

RQNRGGGCINHKDTFFQNPQY (listed as Homo sapiens) [CAPN5-370-390]
proteolysis of peptide substrate by CAPN5-R243L (fluorescence) (CAPN5-R243L): greatest fluorescent intensity | proteolysis of peptide substrate by CAPN5-WT (fluorescence) (CAPN5 WT [3]): cleaved slower | substrate inhibition of CAPN5 cleavage (CAPN5 WT [3]; peptide length series near autoproteolytic site): does not show cleavage substrate inhibition
